From publication PMC11482615, “Novel Peptides LFLLP and DFFL from Jack Bean Protein Hydrolysates Suppress the Inflammatory Response in Lipopolysaccharide-Stimulated RAW 264.7 Cells” (Foods, 2024) come the findings set out here.

Residues, ends and D or L forms follow the SMILES beside them. *: point of attachment. FITC = O=C1OC2(c3ccc(O)cc3Oc3cc(O)ccc32)c2ccc(NC(=S)*)cc21

In the data set the test system is RAW 264.7 cells. The experiment in a line: Visualization of FITC-conjugated peptides in RAW 264.7 cells (fluorescence microscopy). The class given is cell-based, mouse. The note with it: 200 μmol/L FITC-conjugated peptide, 24 h; for incorporation into RAW 264.7 cells (fluorescence signal): intensity of the two peptides roughly comparable; for cellular localization in RAW 264.7 cells: non-colocalization with DAPI. The protocol: To visualize the cellular localization of peptides, LFLLP and DFFL were conjugated with fluorescein isothiocyanate isomer-I (FITC-I, Dojindo). Briefly, the LFLLP and DFFL were mixed with FITC-I in a carbonate buffer at pH 9.5 for 2 h. To purify the FITC-conjugated peptides, the mixture was applied to a Sep-Pak C18 cartridge. RAW 264.7 cells were seeded in a 6-well plate (0.5 × 10^4 cells/cm^2). After 3 days, the cells were incubated with FITC-conjugated peptides (LFLLP and DFFL, 200 µmol/L) for 24 h. The cells were then washed with cold PBS and fixed with 4% PFA for 10 min. Lastly, the cells were washed three times with PBS and mounted on microscope slides using a mounting fluid containing DAPI, and the fluorescence signals were visualized using a Leica DMI6000 B fluorescence microscope (Leica).

For `CC(C)C[C@H](NC(=O)[C@H](Cc1ccccc1)NC(=O)[C@H](Cc1ccccc1)NC(=O)[C@H](CC(=O)O)NC(=S)Nc1ccc2c(c1)C(=O)OC21c2ccc(O)cc2Oc2cc(O)ccc21)C(=O)O` [FITC-conjugated DFFL] ({FITC}-DFFL-OH), the “incorporation into RAW 264.7 cells (fluorescence signal)” value is reported as “observed in most cells” and the “cellular localization in RAW 264.7 cells” value is “predominantly localized in the cytosols”.
With `CC(C)C[C@H](NC(=O)[C@H](Cc1ccccc1)NC(=O)[C@H](CC(C)C)NC(=S)Nc1ccc2c(c1)C(=O)OC21c2ccc(O)cc2Oc2cc(O)ccc21)C(=O)N[C@@H](CC(C)C)C(=O)N1CCC[C@H]1C(=O)O` [FITC-conjugated LFLLP] ({FITC}-LFLLP-OH), the “incorporation into RAW 264.7 cells (fluorescence signal)” value is recorded as “observed in most cells” and the “cellular localization in RAW 264.7 cells” value is “predominantly localized in the cytosols”.
